Measured values as given in patent WO2012003472A1 (dated 2012).
Each block holds one binder with its values, some of them ahead of it.

What was measured:
[1] = target: T1, recombinant human Notch 1/Fc fusion protein (rhNotch1-Fc) (human, UniProt P46531 19-526); test: SPR (Biacore T100), antibody captured on anti-mouse IgG, rhNotch1-Fc as analyte, 25°C
T1 construct: Bought protein; also called rhNotchl-Fc; R&D Systems Cat. No. 3647-TK-050; not shown: Fc part

[2] = target: human Notch1 displayed on the surfaces of cells (human, UniProt P46531 19-2555); test: cell-based or functional assay
[3] = target: T2, rhNotch2-Fc (human, UniProt Q04721 26-530); test: BLI (Octet QK), Notch-Fc on anti-human-Fc sensors
T2 construct: Bought protein; also called human Notch2 protein; R&D Cat. No. 3735-NT-050; not shown: Fc part
T2 sequence (looked up): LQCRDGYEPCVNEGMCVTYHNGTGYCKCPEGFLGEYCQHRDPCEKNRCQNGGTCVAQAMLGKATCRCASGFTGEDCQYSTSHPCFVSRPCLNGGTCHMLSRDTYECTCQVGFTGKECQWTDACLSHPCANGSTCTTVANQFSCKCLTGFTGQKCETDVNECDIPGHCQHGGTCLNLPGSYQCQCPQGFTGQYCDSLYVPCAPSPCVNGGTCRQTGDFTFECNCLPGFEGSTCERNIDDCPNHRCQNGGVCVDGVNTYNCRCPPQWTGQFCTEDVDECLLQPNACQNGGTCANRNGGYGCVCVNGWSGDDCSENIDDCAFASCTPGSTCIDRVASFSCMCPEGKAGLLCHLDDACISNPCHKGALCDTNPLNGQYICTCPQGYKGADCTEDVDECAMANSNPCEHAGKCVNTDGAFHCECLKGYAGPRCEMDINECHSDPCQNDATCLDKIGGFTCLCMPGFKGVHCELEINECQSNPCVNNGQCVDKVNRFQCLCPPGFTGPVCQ

[4] = target: T3, rhNotch3-Fc (human, UniProt Q9UM47 40-467); test: BLI (Octet QK), Notch-Fc on anti-human-Fc sensors
T3 construct: Bought protein; also called human Notch3 protein; R&D Cat. No. 1559-NT-050; not shown: Fc part
T3 sequence (looked up): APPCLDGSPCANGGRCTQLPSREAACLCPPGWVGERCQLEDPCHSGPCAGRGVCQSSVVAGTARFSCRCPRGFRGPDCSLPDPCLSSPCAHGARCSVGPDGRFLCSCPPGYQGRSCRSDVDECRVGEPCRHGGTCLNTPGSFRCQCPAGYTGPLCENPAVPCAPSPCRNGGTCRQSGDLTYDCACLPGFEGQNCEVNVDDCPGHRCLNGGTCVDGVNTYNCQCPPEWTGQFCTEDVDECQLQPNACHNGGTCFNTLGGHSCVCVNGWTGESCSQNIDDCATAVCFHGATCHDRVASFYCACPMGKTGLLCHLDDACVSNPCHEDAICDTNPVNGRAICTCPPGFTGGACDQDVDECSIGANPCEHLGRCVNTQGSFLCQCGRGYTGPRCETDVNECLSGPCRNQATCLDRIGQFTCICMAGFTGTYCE

[5] = target: T4, human Notch3 displayed on the surfaces of cells (human, UniProt Q9UM47 40-2321); test: electrochemiluminescence (Meso Scale Discovery) on CHO FlpIn cells
T4 construct: whole, on cells; also called human Notch3 on CHO FlpIn cells; Notch3-dependent reporter cells

[6] = target: T5, human Notch2 displayed on the surfaces of cells (human, UniProt Q04721 26-2471); test: as above
T5 construct: whole, on cells; also called human Notch2 on CHO FlpIn cells; Notch2-dependent reporter cells

[7] = target: T6, human Notch4 displayed on the surfaces of cells (human, UniProt Q99466 24-2003); test: as above
T6 construct: whole, on cells; also called human Notch4 on CHO FlpIn cells
T6 sequence (Q99466 24-2003): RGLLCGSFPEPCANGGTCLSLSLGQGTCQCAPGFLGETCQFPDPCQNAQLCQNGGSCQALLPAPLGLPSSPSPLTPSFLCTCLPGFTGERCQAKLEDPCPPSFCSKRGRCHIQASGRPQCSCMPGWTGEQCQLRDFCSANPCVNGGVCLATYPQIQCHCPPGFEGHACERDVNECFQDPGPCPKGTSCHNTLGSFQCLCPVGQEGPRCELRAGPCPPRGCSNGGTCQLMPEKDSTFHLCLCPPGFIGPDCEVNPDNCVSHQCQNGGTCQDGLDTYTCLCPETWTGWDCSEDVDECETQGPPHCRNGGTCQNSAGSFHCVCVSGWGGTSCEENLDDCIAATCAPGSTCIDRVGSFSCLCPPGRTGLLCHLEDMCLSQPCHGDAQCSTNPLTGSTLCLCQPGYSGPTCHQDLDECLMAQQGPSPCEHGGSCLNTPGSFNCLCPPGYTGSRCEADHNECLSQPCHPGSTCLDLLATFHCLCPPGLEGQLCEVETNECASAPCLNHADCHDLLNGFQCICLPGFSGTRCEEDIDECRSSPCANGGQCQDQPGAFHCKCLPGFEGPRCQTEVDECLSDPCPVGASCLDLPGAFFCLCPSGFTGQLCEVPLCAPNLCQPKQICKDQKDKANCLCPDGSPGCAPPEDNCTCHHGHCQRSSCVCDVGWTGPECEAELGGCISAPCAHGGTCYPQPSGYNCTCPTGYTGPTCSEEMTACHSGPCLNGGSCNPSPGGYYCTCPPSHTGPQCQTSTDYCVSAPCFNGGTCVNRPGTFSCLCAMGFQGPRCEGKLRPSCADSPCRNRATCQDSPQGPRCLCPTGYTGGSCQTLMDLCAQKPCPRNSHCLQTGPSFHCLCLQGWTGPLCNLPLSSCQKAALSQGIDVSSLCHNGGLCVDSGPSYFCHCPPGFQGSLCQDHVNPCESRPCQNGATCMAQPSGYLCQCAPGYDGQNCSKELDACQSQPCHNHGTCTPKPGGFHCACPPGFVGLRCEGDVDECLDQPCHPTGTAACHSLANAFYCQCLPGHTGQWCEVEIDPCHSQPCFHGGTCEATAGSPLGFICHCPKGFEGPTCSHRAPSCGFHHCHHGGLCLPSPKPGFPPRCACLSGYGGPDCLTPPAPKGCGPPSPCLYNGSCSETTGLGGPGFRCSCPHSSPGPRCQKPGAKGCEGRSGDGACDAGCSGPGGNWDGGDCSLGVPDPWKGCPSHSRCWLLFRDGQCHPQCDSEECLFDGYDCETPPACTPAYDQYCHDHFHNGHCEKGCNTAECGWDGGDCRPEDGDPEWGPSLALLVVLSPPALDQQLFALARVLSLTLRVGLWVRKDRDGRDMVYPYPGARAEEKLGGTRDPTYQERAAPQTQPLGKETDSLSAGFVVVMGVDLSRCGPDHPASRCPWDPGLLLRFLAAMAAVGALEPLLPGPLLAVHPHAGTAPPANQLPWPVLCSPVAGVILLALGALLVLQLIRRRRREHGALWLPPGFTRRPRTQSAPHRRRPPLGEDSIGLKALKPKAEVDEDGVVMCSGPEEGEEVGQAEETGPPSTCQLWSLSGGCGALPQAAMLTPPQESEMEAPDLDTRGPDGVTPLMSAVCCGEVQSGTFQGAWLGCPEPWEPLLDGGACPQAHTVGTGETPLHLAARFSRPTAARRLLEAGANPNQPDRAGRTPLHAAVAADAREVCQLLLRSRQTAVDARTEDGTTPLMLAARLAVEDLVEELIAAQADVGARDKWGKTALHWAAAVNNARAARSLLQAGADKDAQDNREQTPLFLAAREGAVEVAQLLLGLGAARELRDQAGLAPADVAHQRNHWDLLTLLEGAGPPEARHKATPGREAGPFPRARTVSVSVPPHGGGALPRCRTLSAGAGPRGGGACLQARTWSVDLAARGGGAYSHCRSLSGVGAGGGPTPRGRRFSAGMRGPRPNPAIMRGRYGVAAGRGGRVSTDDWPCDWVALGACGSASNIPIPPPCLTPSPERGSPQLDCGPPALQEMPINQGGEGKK

Sequence of human Notch1 displayed on the surfaces of cells (P46531 19-2555): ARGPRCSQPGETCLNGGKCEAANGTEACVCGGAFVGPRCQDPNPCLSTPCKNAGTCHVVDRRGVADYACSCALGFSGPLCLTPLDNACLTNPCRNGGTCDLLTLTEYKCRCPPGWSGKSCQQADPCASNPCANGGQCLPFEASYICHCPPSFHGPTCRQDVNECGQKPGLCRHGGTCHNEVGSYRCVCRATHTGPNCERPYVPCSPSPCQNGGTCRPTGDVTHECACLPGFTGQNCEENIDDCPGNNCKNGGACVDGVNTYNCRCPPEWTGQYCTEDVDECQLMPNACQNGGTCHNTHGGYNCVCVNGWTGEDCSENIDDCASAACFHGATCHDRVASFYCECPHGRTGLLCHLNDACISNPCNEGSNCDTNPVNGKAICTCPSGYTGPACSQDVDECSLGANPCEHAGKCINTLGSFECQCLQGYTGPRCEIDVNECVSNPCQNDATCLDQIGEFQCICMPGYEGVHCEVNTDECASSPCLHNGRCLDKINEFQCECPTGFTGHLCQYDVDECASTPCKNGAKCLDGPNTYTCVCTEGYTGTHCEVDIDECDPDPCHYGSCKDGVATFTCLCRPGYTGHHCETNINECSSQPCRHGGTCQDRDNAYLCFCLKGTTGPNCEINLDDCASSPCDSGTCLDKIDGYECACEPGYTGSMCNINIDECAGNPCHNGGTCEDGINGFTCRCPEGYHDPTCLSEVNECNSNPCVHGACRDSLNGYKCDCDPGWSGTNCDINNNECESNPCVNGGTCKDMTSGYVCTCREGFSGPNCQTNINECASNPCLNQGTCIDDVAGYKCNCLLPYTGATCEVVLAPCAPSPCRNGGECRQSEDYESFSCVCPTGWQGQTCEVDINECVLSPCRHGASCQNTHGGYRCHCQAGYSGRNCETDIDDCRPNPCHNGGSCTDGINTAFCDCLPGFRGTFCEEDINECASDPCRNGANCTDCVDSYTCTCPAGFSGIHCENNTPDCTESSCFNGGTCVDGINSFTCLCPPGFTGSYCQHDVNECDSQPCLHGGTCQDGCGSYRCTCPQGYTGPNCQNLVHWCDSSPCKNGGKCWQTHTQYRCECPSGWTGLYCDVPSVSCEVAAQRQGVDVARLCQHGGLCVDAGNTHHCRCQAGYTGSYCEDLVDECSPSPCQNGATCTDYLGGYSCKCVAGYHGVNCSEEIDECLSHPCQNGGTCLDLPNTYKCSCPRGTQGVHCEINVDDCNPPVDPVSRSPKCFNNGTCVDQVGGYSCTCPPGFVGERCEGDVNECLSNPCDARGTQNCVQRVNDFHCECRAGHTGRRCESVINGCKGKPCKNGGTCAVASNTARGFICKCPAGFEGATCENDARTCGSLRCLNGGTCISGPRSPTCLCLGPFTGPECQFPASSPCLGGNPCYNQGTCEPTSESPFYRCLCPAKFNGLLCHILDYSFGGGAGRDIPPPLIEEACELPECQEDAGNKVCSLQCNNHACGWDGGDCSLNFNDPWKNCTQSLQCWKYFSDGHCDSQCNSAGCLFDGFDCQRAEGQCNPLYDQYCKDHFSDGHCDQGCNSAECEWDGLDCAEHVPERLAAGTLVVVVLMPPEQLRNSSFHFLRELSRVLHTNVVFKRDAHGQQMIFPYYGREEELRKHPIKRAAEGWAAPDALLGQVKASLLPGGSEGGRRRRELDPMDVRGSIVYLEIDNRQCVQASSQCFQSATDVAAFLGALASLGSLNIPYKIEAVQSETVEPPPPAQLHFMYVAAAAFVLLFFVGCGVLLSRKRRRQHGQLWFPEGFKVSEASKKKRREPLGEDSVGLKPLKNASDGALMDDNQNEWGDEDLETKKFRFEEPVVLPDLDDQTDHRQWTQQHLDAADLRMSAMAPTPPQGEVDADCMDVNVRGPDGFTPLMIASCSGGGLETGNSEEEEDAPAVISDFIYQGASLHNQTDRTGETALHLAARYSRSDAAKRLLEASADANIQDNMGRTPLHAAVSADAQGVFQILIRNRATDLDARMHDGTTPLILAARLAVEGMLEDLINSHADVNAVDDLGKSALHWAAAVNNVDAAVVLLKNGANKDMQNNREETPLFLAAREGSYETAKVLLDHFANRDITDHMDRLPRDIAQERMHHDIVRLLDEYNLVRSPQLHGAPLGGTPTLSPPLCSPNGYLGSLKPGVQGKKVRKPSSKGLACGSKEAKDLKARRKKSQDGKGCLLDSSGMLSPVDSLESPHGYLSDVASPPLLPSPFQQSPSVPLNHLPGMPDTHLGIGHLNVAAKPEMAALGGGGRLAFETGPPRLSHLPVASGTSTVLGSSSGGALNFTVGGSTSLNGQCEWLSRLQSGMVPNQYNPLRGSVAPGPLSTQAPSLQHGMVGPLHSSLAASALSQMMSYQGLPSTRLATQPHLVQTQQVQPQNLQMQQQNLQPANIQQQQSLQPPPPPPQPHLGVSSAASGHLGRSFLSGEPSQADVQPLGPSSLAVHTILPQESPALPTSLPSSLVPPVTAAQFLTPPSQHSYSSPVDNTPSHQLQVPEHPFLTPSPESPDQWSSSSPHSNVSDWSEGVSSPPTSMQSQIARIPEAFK

Kd [1]: ≤ 10 nM
EC50, Inhibition of Notch 1 Signaling, DLL1 (row printed 'DLI A') [2]: 0.2 nM
EC50, Inhibition of Notch 1 Signaling, DLL4 (row printed 'DLI A') [2]: 0.1 nM
EC50, Inhibition of Notch 1 Signaling, Jag 1 [2]: 0.4 nM
EC50, Inhibition of Notch 1 Signaling, Jag 2 [2]: 0.1 nM
B1: antibody 2E6 (antibody, mouse IgG1, kappa, V domains shown)
VH: EVQLQQSGAELARPGASVKMSCKASGYTFTSYWMHWVKQRPGQGLEWIGAVYPRNNDTTYNQKFKGKAKLTAVTSASTAYMALSSLTNEDSAVYYCLYFNYNFDYWGQGTTLTVSS
VL: QIVLTQSPAIMSASPGEKVTMTCSASSSVSYMHWYQQKPGSSPRLLIYDTSNLASGVPVHFSGSGSGTSYSLTIIRMEAEDAATYYCQQWSSYPYTFGGGTKLEIKR
notes: Mouse monoclonal from hybridoma, IgG1 kappa; also called 2E06; mu2E6

Kd [1]: ≤ 10 nM
binding result [3]: no binding (tested: 50 μg/ml antibody)
binding result [4]: no binding (tested: 50 μg/ml antibody)
binding result [5]: no binding (tested: 5 μg/ml antibody)
binding result [6]: no binding (tested: 5 μg/ml antibody)
binding result [7]: no binding (tested: 5 μg/ml antibody)
B2: antibody 2A11 (antibody, mouse IgG2b, kappa, V domains shown)
VH: QVQLQQSGPELVKPGASVKISCKASGYAFSSSWMNWVKQRPGKGLEWIGRIYPGDGDTNYNGKFKGKATLTADKSSSTAYMQLSSLTSEDSAVYFCARSGSIYYGNHGDYFDYWGQGTTLTVSS
VL: B1 VL
notes: Mouse monoclonal from hybridoma, IgG2b kappa

EC50, Inhibition of Notch 1 Signaling, DLL1 (row printed 'DLI A') [2]: 0.1 nM
EC50, Inhibition of Notch 1 Signaling, DLL4 (row printed 'DLI A') [2]: 0.02 nM
EC50, Inhibition of Notch 1 Signaling, Jag 1 [2]: 0.9 nM
EC50, Inhibition of Notch 1 Signaling, Jag 2 [2]: 0.5 nM
B3: Hu2E6-62 (antibody, human IgG1, kappa, V domains shown)
VH: EVQLVQSGAEVAKPGASVKMSCKASGYTFTSYWMHWVKQAPGQGLEWIGAVYPRNNDATYNQKFKGKATLTADTSTSTAYMELRSLRSDDTAVYYCLYFNYNFDYWGQGTLLTVSS
VL: EIVLTQSPATMSASPGERVTMSCRASSSVSYMHWYQQKPGQSPRLLIYDTSNRASGVPAHFSGSGSGTDYTLTISSMEPEDFATYYCQQWSSYPYTFGQGTKLEIKR

Kd [1]: ≤ 10 nM
B4: antibody 2D11 (antibody, mouse IgG1, kappa, V domains shown)
VH: EVQLQQSGAELARPGASVKMSCKASGYTFTRYWMHWVKQRPGQGLEWIGAIYPGNSDTTYNQKFKGKAKLTAVTSASTAYMELSSLTNEDSAVYYCIYPYDYLDYWGQGTTLTVSS
VL: QIVLTQSPAIMSASPGEKVTMTCSASSSLSYMHWYQQKPGTSPKRWVYDTSKLASGVPARFSGSGSGTSYSLTISSMEAEDAATYYCHQRSSYPYTFGGGTKLEIKR
notes: Mouse monoclonal from hybridoma, IgG1 kappa
